In experiment [1] the target is T1, Human SLIT2-N (human, UniProt O94813 31-1121, limits assumed).
T1 construct: domain: SLIT2-N (N terminal fragment); Soluble analyte in SPR, d2-labelled in HTRF, overexpressed on HEK293 cells in flow cytometry; also called human SLIT2-N (N terminal fragment)
T1 sequence (looked up): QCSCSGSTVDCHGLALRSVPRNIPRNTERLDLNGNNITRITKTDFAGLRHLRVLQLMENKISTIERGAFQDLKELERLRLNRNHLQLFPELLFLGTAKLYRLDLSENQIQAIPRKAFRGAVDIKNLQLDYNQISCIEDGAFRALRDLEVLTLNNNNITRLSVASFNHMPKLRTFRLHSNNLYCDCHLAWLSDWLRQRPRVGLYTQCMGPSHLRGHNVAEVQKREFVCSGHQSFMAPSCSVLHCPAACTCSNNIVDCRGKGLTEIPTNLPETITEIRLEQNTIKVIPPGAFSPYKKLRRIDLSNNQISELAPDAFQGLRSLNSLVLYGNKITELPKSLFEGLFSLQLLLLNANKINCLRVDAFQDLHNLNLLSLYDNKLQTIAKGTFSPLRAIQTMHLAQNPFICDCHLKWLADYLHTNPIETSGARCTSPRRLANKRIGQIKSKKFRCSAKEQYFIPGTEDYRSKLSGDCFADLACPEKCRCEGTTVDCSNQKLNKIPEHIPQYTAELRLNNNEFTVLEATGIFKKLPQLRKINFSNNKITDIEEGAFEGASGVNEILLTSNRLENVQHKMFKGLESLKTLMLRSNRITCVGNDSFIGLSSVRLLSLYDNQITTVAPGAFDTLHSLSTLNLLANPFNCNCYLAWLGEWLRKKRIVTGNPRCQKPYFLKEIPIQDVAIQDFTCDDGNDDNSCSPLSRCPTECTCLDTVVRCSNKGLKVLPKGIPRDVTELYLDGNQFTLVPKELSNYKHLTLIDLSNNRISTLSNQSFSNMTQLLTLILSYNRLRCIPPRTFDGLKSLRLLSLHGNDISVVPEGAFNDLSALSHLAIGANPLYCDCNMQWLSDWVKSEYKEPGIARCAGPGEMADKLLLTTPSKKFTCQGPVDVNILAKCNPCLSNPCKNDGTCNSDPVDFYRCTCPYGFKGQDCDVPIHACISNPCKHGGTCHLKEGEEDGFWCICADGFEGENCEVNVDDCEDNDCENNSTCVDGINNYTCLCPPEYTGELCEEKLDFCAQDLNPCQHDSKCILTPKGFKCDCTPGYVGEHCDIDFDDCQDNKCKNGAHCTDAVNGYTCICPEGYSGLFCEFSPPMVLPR
Briefly: flow cytometry, AF647-labelled ROBO2-Fc 2.2 on HEK293 cells overexpressing human SLIT2-N (FIG. 5). The procedure:
After incubation, 150 μL of FACS buffer was added per well to wash the cells. After washing, cells were resuspended in buffer for data acquisition on a Fortessa Flow Cytometer.

Experiment [2] addresses T2, Cynomolgus monkey SLIT3-N (cynomolgus monkey, UniProt A0A2K5UAP4 33-1125).
T2 construct: domain: SLIT3-N; d2-labelled in the HTRF assay
T2 sequence: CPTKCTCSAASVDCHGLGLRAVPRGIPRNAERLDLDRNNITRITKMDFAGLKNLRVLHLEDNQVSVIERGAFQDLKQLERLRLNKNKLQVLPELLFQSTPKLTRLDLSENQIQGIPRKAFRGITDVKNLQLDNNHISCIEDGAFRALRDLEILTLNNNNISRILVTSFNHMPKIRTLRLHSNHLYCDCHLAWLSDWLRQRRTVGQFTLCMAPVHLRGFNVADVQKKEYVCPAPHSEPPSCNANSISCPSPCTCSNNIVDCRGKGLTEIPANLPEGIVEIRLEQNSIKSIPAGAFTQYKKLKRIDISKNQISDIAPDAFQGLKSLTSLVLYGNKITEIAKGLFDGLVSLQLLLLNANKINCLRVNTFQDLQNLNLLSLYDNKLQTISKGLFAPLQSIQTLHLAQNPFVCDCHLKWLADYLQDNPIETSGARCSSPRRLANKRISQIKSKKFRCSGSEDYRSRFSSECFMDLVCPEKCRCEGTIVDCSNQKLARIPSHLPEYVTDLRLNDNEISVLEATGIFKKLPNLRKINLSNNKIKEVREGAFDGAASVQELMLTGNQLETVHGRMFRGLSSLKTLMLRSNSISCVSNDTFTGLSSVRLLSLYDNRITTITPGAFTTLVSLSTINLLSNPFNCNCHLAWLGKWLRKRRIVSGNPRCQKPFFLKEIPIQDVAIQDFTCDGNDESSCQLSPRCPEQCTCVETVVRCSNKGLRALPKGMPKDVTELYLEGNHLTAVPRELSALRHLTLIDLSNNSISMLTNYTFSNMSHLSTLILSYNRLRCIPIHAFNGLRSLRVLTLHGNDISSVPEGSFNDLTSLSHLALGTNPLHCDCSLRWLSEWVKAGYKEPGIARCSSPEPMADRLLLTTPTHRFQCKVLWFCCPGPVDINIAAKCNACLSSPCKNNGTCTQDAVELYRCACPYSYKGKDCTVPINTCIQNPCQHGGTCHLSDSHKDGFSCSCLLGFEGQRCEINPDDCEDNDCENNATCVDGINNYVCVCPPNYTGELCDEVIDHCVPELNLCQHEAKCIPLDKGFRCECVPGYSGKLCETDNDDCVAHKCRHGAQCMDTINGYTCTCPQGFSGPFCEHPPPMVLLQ
Briefly: HTRF competition: d2-labelled cynomolgus monkey SLIT3-N binding to human ROBO2 on HEK293 cells; geometric mean, n=3. The procedure: (§1) After incubation, fluorescence at 665 nm and 620 nm was measured on an Envision multilabel plate reader. The HTRF Ratio was calculated as follows: fluorescence at 665 nm/fluorescence at 620 nm×10,000. […] The IC₅₀ for each SLITx-N was determined using an 11-point, 4-fold dilution series with a top concentration of 4000 nM.

In experiment [3] the target is T1, Human SLIT2-N. The experiment is described as follows: HTRF competition: d2-labelled human SLIT2-N binding to human ROBO2 on HEK293 cells; geometric mean, n=4; Table 2 species panel; geometric mean, n=4. The procedure:
as §1

As a reminder, the EC50 is the midpoint of the concentration-response curve. As a reminder, the IC50 is the concentration that gives 50% inhibition.

B1: ROBO2-Fc 2.2 (Fc fusion)
chain: SRLRQEDFPPRIVEHPSDVIVSKGEPTTLNCKAEGRPTPTIEWYKDGERVETDKDDPRSHRMLLPSGSLFFLRIVHGRRSKPDEGSYVCVARNYLGEAVSRNASLEVALLRDDFRQNPTDVVVAAGEPAILECQPPRGHPEPTIYWKKDKVRIDDKEERISIRGGKLMISNTRKSDAGMYTCVGTNMVGERDSDPAELTVFERGGSGGSEPKSSDKTHTCPPCPAPEAAGAPSVFLFPPKPKDTLMISRTPEVTCVVVDVSHEDPEVKFNWYVDGVEVHNAKTKPREEQYNSTYRVVSVLTVLHQDWLNGKEYKCKVSNKALPAPIEKTISKAKGQPREPQVYTLPPSREEMTKNQVSLTCLVKGFYPSDIAVEWESNGQPENNYKTTPPVLDSDGSFFLYSKLTVDKSRWQQGNVFSCSVMHEALHNHYTQKSLSLSPG
notes: Labelled with Alexa Fluor 647 in the flow cytometry assay; also called ROBO-Fc 2.2; ROBO2-Fc 2.2-AF647
B1 came in with an EC50 in experiment [1] of 9 nM. In addition, the results for the IC50 in experiment [2] and in experiment [3] were 3.6 nM and 3.9 nM, respectively.

The values are drawn from patent publication US20210214414A1 (Pfizer, published 2021).
